The results in this text go back to patent publication US20030204066A1.

The assay concerns the target human lymphotoxin (TNFβ) (human) (UniProt P01374). The experiment in a line: cell-based or functional assay.

Chain of human lymphotoxin (TNFβ) (human) (P01374 35-205 limits assumed): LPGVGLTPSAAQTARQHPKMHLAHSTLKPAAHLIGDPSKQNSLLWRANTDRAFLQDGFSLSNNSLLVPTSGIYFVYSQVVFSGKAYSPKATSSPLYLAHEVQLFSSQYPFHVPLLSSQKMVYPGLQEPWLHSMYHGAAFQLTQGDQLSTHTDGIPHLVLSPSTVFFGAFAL

“p55-sf2 (p55 TNF receptor / IgG1 heavy chain single fusion with truncated light chain JCK) (from UniProt P19438) (Fc fusion)” had an amount needed for the same inhibition of TNFβ cytotoxicity, against p75P-sf2 (fold (against p75P-sf2)) of 3.
